T1: fibrils of IAPP (UniProt P10997 34-70)
T1 construct: Insoluble fibrils formed by 72 h at 37 °C; also called Islet Amyloid Polypeptide
T1 peptide (looked up): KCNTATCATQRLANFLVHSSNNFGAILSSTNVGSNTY

B1: humanized anti-peptide Aβ antibody VH1VL1 (LP09027) (antibody, human IgG4 S228P, kappa, V domains shown)
VH: EVQLQQSGPEVVKPGVSVKISCKGSGYTFTDYAMHWVKQSPGKSLEWIGVISTKYGKTNYNPSFQGQATMTVDKSSSTAYMELASLKASDSAIYYCARGDDGYSWGQGTSVTVSS
VL: EIVMTQTPLSLPVSLGDRASISCRSGQSLVHSNGNTYLHWYLQKPGQSPKLLIYTVSNRFSGVPDRFSGSGSGSDFTLTISRVEAEDLGVYFCSQNTFVPWTFGGGTKLEIKR
notes: Humanized from murine antibody 13C3; Made in FreeStyle 293-F cells; hetero-tetramer of 150 kDa; also called 13C3-VH1VL1; Antibody 1 VH1VL1

Key:
[1] = molecular target: B1; test: competitive ELISA, antibody 0.02 µg/ml pre-incubated with the peptide, free antibody read on coated Aβ1-42
Experimental: The antibody/antigen mixture is then deposited in each well and the microtitration plate is incubated for 1 h at room temperature. The free, uncomplexed antibody is determined according to the same ELISA protocol as described previously.

fibrils of IAPP = molecular target: T1, fibrils of IAPP; test: ELISA on coated fibrils (IAPP at 0.5 µg/ml)
Experimental: 50 μl of fibrils of Aβ1-42 at 1 μg/ml and IAPP at 0.5 μg/ml are deposited in each well of a microtitration plate. The ELISA protocol is applied using serial dilutions of the humanized antibody starting from 10 μg/ml.

| Binder | binding result [1] | binding result (fibrils of IAPP) |
| --- | --- | --- |
| GSNKGAIIGLM (peptide, UniProt P05067 696-706, looked up, range 25-35) [peptide Aβ25-35] | no binding |  |
| B1 |  | no binding |
| DAEFRHDSGYEVHHQK (peptide, UniProt P05067 672-687, looked up, range 1-16) [peptide Aβ1-16] | no binding |  |

Source: patent US20120177639A1 (Sanofi, published 2012)
